# Measurements: patent US20060292634A1
# Where two headings read alike, the source gives them in different places.
# How the values were obtained:
# [1] = molecular target: ELK (3% skim milk powder solution); experiment: ELISA, ELK-coated control well, ~50 ng iMab per well, anti-VSV-HRP; urea-purified
# [2] = molecular target: chicken lysozyme (chicken), P00698; experiment: ELISA vs. lysozyme, iMab dilution 1:10, before pH 4.8 precipitation; details: remark: other sources report otherwise
# [3] = molecular target: chicken lysozyme (chicken), P00698; experiment: ELISA vs. lysozyme, iMab dilution 1:100, before pH 4.8 precipitation; details: remark: other sources report otherwise
# [4] = molecular target: chicken lysozyme (chicken), P00698; experiment: ELISA vs. lysozyme, iMab dilution 1:1000, before pH 4.8 precipitation; details: remark: other sources report otherwise
# [5] = molecular target: chicken lysozyme (chicken), P00698; experiment: ELISA vs. lysozyme, iMab dilution 1:10,000, before pH 4.8 precipitation; details: remark: other sources report otherwise
# [6] = molecular target: ELK (3% skim milk powder solution); experiment: ELISA, ELK-coated control well, ~50 ng iMab per well, anti-VSV-HRP; heat (60 °C) purified
# [7] = molecular target: chicken lysozyme (chicken), P00698; experiment: ELISA vs. lysozyme, iMab dilution 1:10, after precipitation at pH 4.8 and redissolving; details: remark: other sources report otherwise
# [8] = molecular target: chicken lysozyme (chicken), P00698; experiment: ELISA vs. lysozyme, iMab dilution 1:100, after precipitation at pH 4.8 and redissolving; details: remark: other sources report otherwise
# [9] = molecular target: chicken lysozyme (chicken), P00698; experiment: ELISA vs. lysozyme, iMab dilution 1:1000, after precipitation at pH 4.8 and redissolving; details: remark: other sources report otherwise
# [10] = molecular target: chicken lysozyme (chicken), P00698; experiment: ELISA, lysozyme-coated well (100 µg/ml), ~50 ng iMab per well, anti-VSV-HRP; urea-purified; details: remark: other sources report otherwise
# [11] = molecular target: chicken lysozyme (chicken), P00698; experiment: ELISA vs. lysozyme, iMab dilution 1:10,000, after precipitation at pH 4.8 and redissolving; details: remark: other sources report otherwise
# [12] = molecular target: chicken lysozyme (chicken), P00698; experiment: ELISA, lysozyme-coated well (100 µg/ml), ~50 ng iMab per well, anti-VSV-HRP; heat (60 °C) purified; details: remark: other sources report otherwise
# [13] = molecular target: ELK (3% skim milk powder solution)
# [14] = molecular target: ELK (3% skim milk powder solution); experiment: ELISA, ELK-coated control well, ~5 ng iMab per well, anti-VSV-HRP; urea-purified
# [15] = molecular target: ELK (3% skim milk powder solution); experiment: ELISA, ELK-coated control well, ~20 ng iMab per well, anti-VSV-HRP; urea-purified
# Chain of chicken lysozyme (chicken), P00698 (P00698 19-147 limits assumed): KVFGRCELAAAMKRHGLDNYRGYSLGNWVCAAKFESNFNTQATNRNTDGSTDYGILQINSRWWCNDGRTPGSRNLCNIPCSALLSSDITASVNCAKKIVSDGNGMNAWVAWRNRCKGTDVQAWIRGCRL
binder,measurement,setting,value
"iMab1302 (designed binder, not shown: small tags and cut ends) VVKVVIKPSQNFIENGEDKKFTCRASGYTIGPKCIGWFSQNPEDDSTNVATINMGGGITYYGDSVKERFDIRRDNAKDTSTLSIDDAQPEDAGIYKCAADSTIYASYYECGHGLSTGGYGYDSEATVGVDIFVKLM",Absorbtion (450 nm),[1],0.045 A450
"iMab111 (designed binder, not shown: small tags and cut ends) NVKLVCKGGNFVENDDDLKLTCRAEGYTIGPYCMGWFRQAPNDDSTNVATINMGGGITYYGDSVKERFDIRRDNASNTVTLSMDDLQPEDSAEYNCAGDSTIYASYYECGHGLSTGGYGYDSHYRCQGTDVTVSS",Absorbtion (450 nm),[1],0.043 A450
"iMab100 (designed binder, not shown: small tags and cut ends) NVKLVEKGGNFVENDDDLKLTCRAEGYTIGPYCMGWFRQAPNDDSTNVATINMGGGITYYGDSVKERFDIRRDNASNTVTLSMDDLQPEDSAEYNCAGDSTIYASYYECGHGLSTGGYGYDSHYRGQGTDVTVSS",Absorbtion (450 nm),[1],0.04 A450
same,Signal on Elisa,[2],0.36
same,Signal on Elisa,[3],0.228
same,Signal on Elisa,[4],0.128
same,Signal on Elisa,[5],0.059
same,Absorbtion (450 nm),[6],0.041 A450
same,Signal on Elisa,[7],0.39
same,Signal on Elisa,[8],0.263
same,Signal on Elisa,[9],0.169
same,Absorbtion (450 nm),[10],0.494 A450
same,Signal on Elisa,[11],0.059
same,Absorbtion (450 nm),[12],0.369 A450
"iMab1202 (designed binder, not shown: small tags and cut ends) IVKLVMEKRGNFENGQDCKLTIRASGYTIGPACDGFFCQFPSDDSFSTEDNMGGGITVNDAMKPQFDIRRDNAKGTWTLSMDFQPEGIYEMQCAADSTIYASYYECGHGLSTGGYGYDNPVRLGGFDVDVPDV",Absorbtion (450 nm),[1],0.041 A450
"iMab122 (designed binder, not shown: small tags and cut ends) NVKLVEKGGNFVENDDDLKLTCRASGRTFSSRTMGWFRQAPNDDSTNVATIRWNGGSTYYTNYGDSVKERFDIRVDQASNTVTLSMDDLQPEDSAEYNCAGTDIGDGWSGRYDYRGQGTDVTVSS",Absorbtion (450 nm),[1],0.051 A450
iMab701 (designed binder) MASTITCEASGYTIGPACVAFDTTLGNNMGTYSAPLTSTTLGVATVTCAADSTIYASYYECGHGLSTGGYGYAAFSVPSVTVNFTA,Absorbtion (450 nm),[13],0.069 A450
"iMab1300 (designed binder, not shown: small tags and cut ends) LQVDIKPSQGEISVGESKFFLCQASGYTIGPCISWFSPNGEKLNMGSSTLTIYNANIDDAGIYKCAADSTIYASYYECGHGLSTGGYGYQSEATVNVKIFQ",Absorbtion (450 nm),[1],0.041 A450
"iMab1602 (designed binder, not shown: small tags and cut ends) AVKPVIGSKAPNFGENGDVKTIDRASGYTIGPTCGGVFFQGPTDDSTNVATINMGGGITYYGDSVKETFDIRRDNAKSTRTESYDDNQPEGLTEVKCAADSTIYASYYECGHGLSTGGYGYDVSSRLYGYDILVGTQ",Absorbtion (450 nm),[1],0.043 A450
iMab1200 (designed binder) HGLPMEKRGNFIVGQNCSLTCPASGYTIGPQCVFNCYFNSALAFSTENMGEWTLDMVFSDAGIYTMCAADSTIYASYYECGHGLSTGGYGYNPVSLGSFVVDSP,Absorbtion (450 nm),[14],0.04 A450
"iMab101 (designed binder, not shown: small tags and cut ends) VKLVEKGGNFVENDDDLKLTCRASGYTIGPYCMGWFRQAPNDDSTNVATINMGTVTLSMDDLQPEDSAEYNCAADSTIYASYYECGHGLSTGGYGYDSHYRGQGTDVTVSS",Absorbtion (450 nm),[15],0.043 A450
